Here are results for three molecules from US10513713B2, “Modified host cells having tolerance to α-olefins” (priority 2014, dated 2019).

B1: Pseudoalteromonas haloplanktis TAC125: heterologous RND efflux pump, AcrB homolog from Pseudoalteromonas haloplanktis TAC125 (protein, listed as Pseudoalteromonas haloplanktis)
chain: MSRYFIDKPIFAWVLAIIVMLAGILAVKSLPIAQYPSIAPPAISITANYPGASAQTLEDSVTQVIEQKMKGLDGLLYMSSTSESNGSATLTLTFNADTDPDIAQVQVQNKLATATPLLPEEVQRQGVVVAKAARNFLLVLAFVSKDGSMTNIDIGDYVASNVQDIVSRVDGVGEAQLFGSQYAMRIWLDPAKLQNFKLTPNDIGAAITAQNAQVSAGQLGGMPAIAGQQLNATITAQSRLQTPEQFENILVKTNSDGSVVRLKDVARVELGGENYGVVARYNGDPAAGIGIKLASGANALDTAEGVKKALEDLKPFFPEGLDVAIPYDTTPFVSLSIEKVVHTLIEAVILVFVVMYLFLQNFRATLIPTIAVPVVLLGTFAILYTFGYSINTLTMFAMVLAIGLLVDDAIVVVENVERLMTEEKLSALDATRKSMDEIKGALVGIAMVLSAVFIPMAFFSGSTGVIYRQFSITIVSAMGLSVLVALILTPALCATLLKPSHVHDKTSFIGRFFSGFNRGFDKTNRGAQGIVGRMISQSKRYLLIYGVLVGGMVYVFSSLPTAFLPDEDQGILFNQVMLPAGSTIEQTLGVVEKVENHYLNDQAEAVGSIFTVTGFSFAGSGQNSAIGFVNLKHWDERQRDDLSVNAVAGKGMGYFSTIKEAFVFAFPPPAIVELGTANGFNMFLQDRVGLGHDELLNARNMLLGMASKSPVLAGVRPNGQEDMPELQLDIDLAKAEALGVTQTDINSTLSTAWGSRYVNDFIDRGRVKKVYMQGEADSRMVPEDLNKWYVRNNNGDMVPFAAFASSHWSYGSPRLERYNGFSAMEIQGSAAPGYSTGQAMDEMERLVKQLPNGIASEWSGISYQERSSGGQAPLLYGLSLLFVFLCLAALYESWSVPFAVMIIVPLGIFGAIMAALIGNLSNDIYLQVGLLTTIGLASKNAILIVEFAIHKMEEGLSLVDAAIAAVKLRLRPVLMTSLAFICGVVPLAIASSAGSGAQNALGISIIGGTLAASTLVVLFVPLFFVLVRKTFSSKSAVATKESE
B2: Marinobacter aqueolei EPL: heterologous RND efflux pump, AcrB homolog from Marinobacter aqueolei EPL (protein, listed as Marinobacter aqueolei)
chain: MPRFFIERPIFAWVVALMLMLGGGLAVKNLAVNQFPDVAPPAIALSVNYPGASAQTVQDTVVQVIEQQLNGLDGLRYISSESNSDGSMTIIATFEQGTDPDIAQVQVQNKLQLANPLLPEEVQRQGIRVSKYKVNFFTVFALTSPDGKYTQGDLADYIVSNIQDPVARTQGVGDFLLFGSQYAMRLWLDPEKLNSYQLTPQDVINSVRAQNVQVSAGQLGGLPTAEGVQLQATVIGKQRMKTAEEFENILLKVNPDGSQVRLADVAEVNLGNENYATTGKYNGAPAAGMALRLATGANQLETAGRVKETLAELERFLPEGVEIVFPYDTTPVVSASIETVAMTLIEAVVLVFLVMFLFLQSWRATIIPTLAVPVVLLATFGVLYAFGFTVNVMTMFAMVLAIGLLVDDAIVVVENVERLMEEEGLSPKEAAKKSMDQISGALLGIGLVISAVFLPMAFFGGSTGVIYRQFSVTIISAMSFSVLVAFIFTPALCATLLKPGDQHVRKGFFGWFNRTFDRSADRYKSGVSYLIKRKGRFMGVYLLLVVAVGFLFKGLPTAFLPDEDQGVMIVMVQLPTNATGERTEAVLAEAGNYLLEEESEVVKSVMSVRGFNFAGRGQNSGILFVDLKPFADRESFAQSVFALAGRSGARFAQIKDAIVFPIVPPAILELGNATGFDLYLKDNGAIGHHALMAATNEFISRANAAPELNMVRHNGLPDEPQYQVIIDDEKARLLQVSIADINATMSAAWGSSYVNDFLHNGRVKKVYVQGKPDSRLAPEDFDKWFVRNAQGEMVPFAAFATGEWVFGSPRLQRYQGLPATQIQGAPANGYSTGDAMAALERIAADLPQGLGLEYTGLSFEEKQAGNQAMMLYLLSILVVFLCLAALYESWSIPFAVIMLVPLGVLGAVLATMARGLSNDVFFQVGMLTTMGLAAKNAILIVEFARQLYEQEGKPLLQATAEAARLRLRPIIMTSLAFIFGVLPMAIASGASSASQHAIGTAVVGGTLAATILAIFFVPLFYVFVVGLTGKRKSADD
B3: Pseudomonas putida KT2440: heterologous RND efflux pump, AcrB homolog from Pseudomonas putida KT2440 (protein, listed as Pseudomonas putida)
chain: MSKFFIDRPIFAWVIALVIMLVGALSILKLPINQYPSIAPPAIAIAVTYPGASAQTVQDTVVQVIEQQLNGIDNLRYVSSESNSDGSMTITATFEQGTNPDTAQVQVQNKLNLATPLLPQEVQQQGIRVTKAVKNFLLVIGLVSEDGSMTKDDLANYIVSNMQDPISRTAGVGDFQVFGAQYAMRIWLDPAKLNKFQLTPVDVKTAVAAQNVQVSSGQLGGLPALPGTQLNATIIGKTRLQTAEQFESILLKVNKDGSQVRLGDVAQVGLGGENYAVSAQFNGKPASGLAVKLATGANALDTAKALRETIKGLEPFFPPGVKAVFPYDTTPVVTESISGVIHTLIEAVVLVFLVMYLFLQNFRATIITTMTVPVVLLGTFGILAAAGFSINTLTMFAMVLAIGLLVDDAIVVVENVERVMSEEGLPPKEATKRSMEQIQGALVGIALVLSAVLLPMAFFGGSTGVIYRQFSITIVSAMGLSVLVALIFTPALCATMLKPLKKGEHHTAKGGFFGWFNRNFDRSVNGYERSVGAILRNKVPFLLAYALIVVGMIWLFARIPTAFLPEEDQGVLFAQVQTPAGSSAERTQVVVDQMREYLLKDEADTVSSVFTVNGFNFAGRGQSSGMAFIMLKPWDERSKENSVFALAQRAQQHFFTFRDAMVFAFAPPAVLELGNATGFDVFLQDRGGVGHEKLMEARNQFLAKAAQSKILSAVRPNGLNDEPQYQLTIDDERASALGVTIADINNTLSIALGASYVNDFIDRGRVKKVYIQGEPSARMSPEDLQKWYVRNGAGEMVPFSSFAKGEWTYGSPKLSRYNGVEAMEILGAPAPGYSTGEAMAEVERIAGELPSGIGFSWTGMSYEEKLSGSQMPALFALSVLFVFLCLAALYESWSIPIAVVLVVPLGIIGALIATSLRGLSNDVYFLVGLLTTIGLAAKNAILIVEFAKELHEQGRSLYDAAIEACRMRLRPIIMTSLAFILGVVPLTIASGAGAGSQHAIGTGVIGGMISATVLAIFWVPLFFVAVSSLFGSKEPEKDVTPENPRYEAGQ

The test concerns E. coli DH1 ΔacrAB. Nature of the test: Survival test of heterologous efflux pump library in 1-hexene saturated atmosphere. The note with it: FIG. 7. Format: cell-based. The protocol:
FIG. 7: Impact of homologous pumps on growth in presence of 1-hexene. Survival test of E. coli DH1 ΔacrAB producing either the AcrAB wild type or AcrAB homologs in a 1-hexene saturated atmosphere was performed. One dilution of cultures (10^6 cells) was spotted on agar plate. […] From left to right and from top to bottom of the picture, are culture of strains producing the pumps A. vinelandii (YP_002797425), A. vinelandii (MexF), A. vinelandii (YP_002801502), P. putida (TtgB), P. putida (NP_745594), P. putida (MexF), P. putida (NP_743067), P. aeruginosa (MexB), P. aeruginosa (NP_250708), P. aeruginosa (MexF), P. aeruginosa (NP_253065), P. fluorescens (YP_258460), P. fluorescens (YP_260376), P. fluorescens (YP_258159), P. fluorescens (YP_258289), R. metallidurans (YP_586997), R. melallidurans (YP_583276), R. metallidurans (YP_583852), M. aqueolei (YP_960752), M. aqueolei (YP_957870), P. syringae (YP_276144), P. syringae (YP_275089), P. syringae (MdtB), P. syringae (YP_273025), P. syringae (YP_273463), P. syringae (YP_272632), G. metallireducens (YP_383777), G. metallireducens (YP_384620), G. metallireducens (YP_385464), G. metallireducens (YP_384608), G. metallireducens (YP_386066), B. pertussis (NP_880739), D. vulgaris (YP_009662), S. putrefaciens (YP_001181626), A. borkumensis (YP_692684), B. borkumensis (YP_694242), P. haloplanktis (AcrB), S. halifaxensis (YP_001672433), S. halifaxensis (YP_001673423), S. halifaxensis (YP_001674385), E. coli (AcrEF), E. coli (AcrAB), E. coli (AcrD).
An existing library of heterologous efflux pumps in E. coli (Dunlop et al. 2011) was used to test if another pump may provide better tolerance to 1-hexene than the native E. coli AcrAB-TolC system. Using the agar plate-based method, this strain library constructed in a DH1 ΔacrAB background was tested and the survival compared in presence of 1-hexene relative to the strain expressing an equivalent plasmid-borne copy of the native acrAB genes.
To test the heterologous efflux pump library, the same method was used. […]
As for B1, the “tolerance to 1-hexene relative to the native E. coli acrAB-expressing strain” value was “equivalent tolerance”.
For B2 the value was “equivalent tolerance”; for B3, “equivalent tolerance”.
